Results as given in article PMC4571948, “Identification of a Novel Sequence Motif Recognized by the Ankyrin Repeat Domain of zDHHC17/13 S-Acyltransferases*” (The Journal of Biological Chemistry, 2015).

Biological target: T1, GST-17NAnk (GST-tagged N-terminal (1–305) zDHHC17) (murine, UniProt Q80TN5 1-305)
T1 construct: zDHHC17, murine cDNA, N-terminal residues 1–305 with the AR domain; also called GST-17Ank; GST-tagged AR-containing cytosolic region of zDHHC17; source: E. coli BL21(DE3)pLysS, purified (glutathione resin)
T1 sequence (looked up): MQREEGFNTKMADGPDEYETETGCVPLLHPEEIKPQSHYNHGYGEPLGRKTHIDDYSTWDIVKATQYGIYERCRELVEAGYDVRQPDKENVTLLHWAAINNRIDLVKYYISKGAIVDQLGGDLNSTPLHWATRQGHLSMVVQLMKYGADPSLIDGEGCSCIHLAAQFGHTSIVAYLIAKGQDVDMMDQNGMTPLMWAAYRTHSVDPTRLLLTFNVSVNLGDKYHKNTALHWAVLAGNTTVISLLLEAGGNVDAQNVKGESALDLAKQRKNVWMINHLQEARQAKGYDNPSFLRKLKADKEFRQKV
Test: pull-down; 20 μg GST-17NAnk (or GST) on 10 μl glutathione-Sepharose, 20 μg His6-CSPα or His6-SNAP25b(93–206) (and competing amounts of the other), overnight at 4 °C, PBS washes, Coomassie staining
Details: both partners purified

B1: His6-CSPα (natural protein, bovine, UniProt Q29455 1-198, looked up)
chain: MADQRQRSLSTSGESLYHVLGLDKNATSDDIKKSYRKLALKYHPDKNPDNPEAADKFKEINNAHAILTDATKRNIYDKYGSLGLYVAEQFGEENVNTYFVLSSWWAKALFIFCGLLTCCYCCCCLCCCFNCCCGKCKPKAPEGEETEFYVSPEDLEAQLQSDEREAADTPIVIQPASATETTQLTADSHPSYHTDGFN
notes: CSPα, bovine cDNA; also called His-tagged CSPα; source: E. coli BL21(DE3)pLysS, purified (Ni2+-NTA)
binding result: binds
